Like-named read-outs stand apart in the source and are kept apart here.
Legend:
[1] = molecular target: T1, PD-L1 on CHO-PD-L1 cells (Promega PD-1/PD-L1 Blockade Bioassay) (UniProt Q9NZQ7 19-290, limits assumed); experiment: cell-based or functional assay
PD-L1-His antigen [2] = molecular target: T2, PD-L1-His antigen (human, UniProt Q9NZQ7 19-238); experiment: SPR (Biacore T200), PD-L1-His immobilised on chip, antibody as mobile phase, 1:1 Binding fit
T2 construct: Human PD-L1 ECD with C-terminal 8xHIS tag, expressed in HEK293F; also called hPDL1-His; human PD-L1-His
T2 sequence (Q9NZQ7 other isoform, or with tags, fused parts or gaps limits assumed): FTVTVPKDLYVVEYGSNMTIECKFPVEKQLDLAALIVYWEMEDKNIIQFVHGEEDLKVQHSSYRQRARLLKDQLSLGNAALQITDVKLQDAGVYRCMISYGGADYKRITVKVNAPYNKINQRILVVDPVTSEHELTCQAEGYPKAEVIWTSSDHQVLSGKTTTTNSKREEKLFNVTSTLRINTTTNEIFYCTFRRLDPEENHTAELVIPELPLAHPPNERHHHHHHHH

[3] = molecular target: T3, human PD-L1 on PD-L1-CHO cells (human, UniProt Q9NZQ7 19-290); experiment: FACS on PD-L1-CHO cells, PE-labeled anti-human Fc secondary antibody; MFI(Mean) against Con(nM)
T3 construct: whole, on cells; also called CHO cells overexpressing human PD-L1; PD-L1 expressed on the cell surface
T3 sequence (Q9NZQ7 19-290): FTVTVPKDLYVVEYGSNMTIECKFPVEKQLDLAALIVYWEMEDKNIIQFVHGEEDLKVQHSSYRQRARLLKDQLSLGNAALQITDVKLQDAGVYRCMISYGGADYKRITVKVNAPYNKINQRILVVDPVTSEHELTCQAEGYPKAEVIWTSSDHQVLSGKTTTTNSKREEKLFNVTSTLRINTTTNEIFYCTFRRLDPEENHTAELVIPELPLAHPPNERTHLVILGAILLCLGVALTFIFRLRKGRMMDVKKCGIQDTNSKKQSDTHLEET

[4] = molecular target: T1, PD-L1 on CHO-PD-L1 cells (Promega …); experiment: cell-based or functional assay; remark: listed apart in the source
PD-L1-His antigen [5] = molecular target: T2, PD-L1-His antigen; experiment: SPR (Biacore), method of Example 5, 1:1 Binding fit
CD47-His antigen = molecular target: T4, CD47-His antigen (human, UniProt Q08722 19-139); experiment: competitive ELISA, CD47-His coated, competitor SIRPα-Fc-Bio 0.1 µg/mL
T4 construct: Human CD47 ECD with C-terminal 8xHIS tag, expressed in HEK293F; also called hCD47-His; human CD47-His
T4 sequence (Q08722 other isoform, or with tags, fused parts or gaps limits assumed): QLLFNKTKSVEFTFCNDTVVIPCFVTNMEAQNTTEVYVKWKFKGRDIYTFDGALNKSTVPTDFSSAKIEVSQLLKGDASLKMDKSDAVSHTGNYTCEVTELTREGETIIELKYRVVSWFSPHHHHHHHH

T1 sequence (Q9NZQ7 19-290 limits assumed): as the sequence (Q9NZQ7 19-290) above

Binder	EC50 (luciferase reporter, PD-1/PD-L1 blockade MOA assay; blocked partner: PD-1 on Jurkat-PD1 cells) [4]	Kd (PD-L1-His antigen [5])	IC50 (CD47-His antigen)	further results
L1-R2-4-46 (antibody, human IgG1, kappa, V domains shown) VH: EVQLVESGGGLVQPGGSLRLSCAASGFTFSDSWIHWVRQAPGKGLEWVGWISPYGGSTYYADSLGDRFTISADTSKNTAYLQMNSLRAEDTAVYYCARRHWPGGFDYWGQGTLVTVSS VL: EIVLTQSPSSLSASVGDRVTITCLASQTIGTWLAWYQQKPGKSPQLLIYAASTLQSGVPSRFSGSGSGTDFTLTISSLQPEDVATYYCQQYYSTPRTFGQGTKVEIKR				EC50 (luciferase reporter, PD-1/PD-L1 blockade MOA assay; blocked partner: PD-1 on Jurkat-PD1 cells) [1]: 0.224 µg/mL; EC50 (read off the curve) [1]: ~1 µg/mL; Kd (PD-L1-His antigen [2]): 0.282 nM; EC50 (read off the curve) [3]: ~0.6 nM
L1-R2-4-36 (antibody, human IgG1, kappa, V domains shown) VH: EVQLVESGGGLVQPGGSLRLSCAASGFTFSDSWIHWVRQAPGKGLEWVGWISPYGGSTYYADDFRHRFTISADTSKNTAYLQMNSLRAEDTAVYYCARRHWPGGFDYWGQGTLVTVSS VL: EIVLTQSPSSLSASVGDRVTITCLASQTIGTWLAWYQQKPGKSPQLLIYAASTLQSGVPSRFSGSGSGTDFTLTISSLQPEDVATYYCQQYYSTPRTFGQGTKVEIKR				EC50 (luciferase reporter, PD-1/PD-L1 blockade MOA assay; blocked partner: PD-1 on Jurkat-PD1 cells) [1]: 0.148 µg/mL; EC50 (read off the curve) [1]: ~1 µg/mL; Kd (PD-L1-His antigen [2]): 0.341 nM; EC50 (read off the curve) [3]: ~0.6 nM
L1-R2-4 (antibody, V domains shown, Anti-PD-L1 monoclonal antibody, VH CP11-27 with light chain R2-4; also called LI-R2-4) VH: not shown VL: EIVLTQSPSSLSASVGDRVTITCLASQTIGTWLAWYQQKPGKSPQLLIYAASTLQSGVPSRFSGSGSGTDFTLTISSLQPEDVATYYCQQYYSTPRTFGQGTKVEIKR	2.74 µg/mL	1.67 nM		
L1-R2-4-55 (antibody, human IgG1, kappa, V domains shown) VH: EVQLVESGGGLVQPGGSLRLSCAASGFTFSDSWIHWVRQAPGKGLEWVGWISPYGGSTYYADGMRSRFTISADTSKNTAYLQMNSLRAEDTAVYYCARRHWPGGFDYWGQGTLVTVSS VL: EIVLTQSPSSLSASVGDRVTITCLASQTIGTWLAWYQQKPGKSPQLLIYAASTLQSGVPSRFSGSGSGTDFTLTISSLQPEDVATYYCQQYYSTPRTFGQGTKVEIKR				EC50 (luciferase reporter, PD-1/PD-L1 blockade MOA assay; blocked partner: PD-1 on Jurkat-PD1 cells) [1]: 0.401 µg/mL; EC50 (read off the curve) [1]: ~2 µg/mL; Kd (PD-L1-His antigen [2]): 0.371 nM
L1-R2-89 (antibody, V domains shown, Anti-PD-L1 monoclonal antibody, VH CP11-27 with light chain R2-89; also called LI-R2-89) VH: not shown VL: DIQMTQSPSSLSASVGDRVTITCLASQTIGTWLAWYQQKPGKSPQLLIYAASSLQSGVPSRFSGSGSGTDFTLTISSLQPEDVATYYCQQYYSTPYTFGQGTKVDIKR	3.78 µg/mL	4.08 nM		
L1-R2-6 (antibody, V domains shown, Anti-PD-L1 monoclonal antibody, VH CP11-27 with light chain R2-6; also called LI-R2-6) VH: not shown VL: EIVLTQSPSSVSASVGDKLTMTCQASQDIGKHLNWYQQKPGKPPKLLIYGASNLKTGVPSRFSGTGSGTDFTLTISSLQPEDFATYYCQQSYTTPYTFGQGTRLEIKR	3.92 µg/mL	10.3 nM		
L1-R2-18 (antibody, V domains shown, Anti-PD-L1 monoclonal antibody, VH CP11-27 with light chain R2-18; also called LI-R2-18) VH: not shown VL: EIVLTQSPSSVSASVGDRITITCRASQGIGSWLAWYQQKPGKAPSLLIYAASSLQSGVPSRFSGSGSGTDFTLTISSLQTEDVAVYYCQQYFSTPYTFGQGTKVDIKR	5.09 µg/mL	3.92 nM		
L1-R2-78 (antibody, V domains shown, Anti-PD-L1 monoclonal antibody, VH CP11-27 with light chain R2-78; also called LI-R2-78) VH: not shown VL: DIQMTQSPSSFSASTGDRVTITCRASQGISSYLAWYQQKPGKAPKLLIYAASRLQSGVPSRFSGSGSGTDFTLTISSLQAEDVAVYYCQQYYSTPYTFGQGTKVDIKR	3.57 µg/mL	8.99 nM		
L1-R2-85 (antibody, V domains shown, Anti-PD-L1 monoclonal antibody, VH CP11-27 with light chain R2-85; also called LI-R2-85) VH: not shown VL: DIQMTQSPSSLSASVGDRVTIPCRASQGIGKFLAWYQQKPGKAPSLLIYAASSLQSGVPSRFSGSGSGTDFTLTISSLQTEDVAVYYCQQYFSTPYTFGQGTKVDIKR	5.22 µg/mL	11.5 nM		
antibody L12-6 (antibody, human IgG1, kappa, V domains shown, IgG1 complete anti-CD47 antibody) VH: QVQLQESGPGLVKPSETLSLTCTVSGGSLDNYYWSWIRQPPGKGLEWIGYIYYSGNTNYNPSLKSRVTISVDTSKNQFSLKLSSVTAADTAVYYCARGGRFLERYWGQGTLVTVSS VL: EIVLTQSPSSLSASVGDRVTIPCRASLSIGSFLNWYQQRPGEAPKLLIFAASSLRSGVPSRFSGSGSGTDFTLTISGLQPEDFATYYCQQTYTTPYTFGQGTKVDIKR			0.913 µg/mL	
antibody 3-6 (antibody, human IgG1, kappa, V domains shown, IgG1 complete anti-CD47 antibody) VH: QVQLQESGPGLVKPSETLSLTCTVSGGSLDNYYWSWIRQPPGKGLEWIGYIYYSGNTNYNPSLKSRVTISVDTSKNQFSLRLRSVTAADTAVYYCARGGRIFAGYWGQGTLVTVSS VL: DIQMTQSPSSVSASVGDRVTISCRANQAIGTWLAWYQQKPGKAPKLLIYAASTLQSGVPSRFSGSGSGTEFTLTISSLQAEDVAVYYCQQYYTTPLTFGGGTKLEIKR			1.12 µg/mL	
antibody 3 (antibody, human IgG1, kappa, V domains shown, IgG1 complete anti-CD47 antibody) VH: QVQLQESGPGLVKPSETLSLTCTVSGGSLDGYYWSWIRQPPGKGLEWIGRIYGNSTTNYNPSLKSRVTISVDTSKNQFSLRLRSVTAADTAVYYCARGGRIFAGYWGQGTLVTVSS VL: DIQMTQSPSSVSASVGDRVTISCRANQAIGTWLAWYQQKPGKAPKLLIYAASTLQSGVPSRFSGSGSGTEFTLTISSLQAEDVAVYYCQQYYTTPLTFGGGTKLEIKR			0.844 µg/mL	
antibody 3-3 (antibody, human IgG1, kappa, V domains shown, IgG1 complete anti-CD47 antibody) VH: QVQLQESGPGLVKPSETLSLTCTVSGGSLDNYYWSWIRQPPGKGLEWIGYIYYSGNTNYNPSLKSRVTISVDTSKNQFSLRLRSVTAADTAVYYCARGGRIFGGYWGQGTLVTVSS VL: DIQMTQSPSSVSASVGDRVTISCRANQAIGTWLAWYQQKPGKAPKLLIYAASTLQSGVPSRFSGSGSGTEFTLTISSLQAEDVAVYYCQQYYTTPLTFGGGTKLEIKR			0.939 µg/mL	
antibody 6 (antibody, human IgG1, kappa, V domains shown, IgG1 complete anti-CD47 antibody) VH: QVQLQESGPGLVKPSETLSLTCTVSGGSLNDYYWSWIRQPPGKGLEWIGRIYGNGDTNYNPSLKSRVTISVDTSKNQFSLRLRSVTAADTAVYYCARGGRILAGYWGQGTLVTVSS VL: DIQMTQSPSSVSASVGDRVTISCRANQAIGTWLAWYQQKPGKAPKLLIYAASTLQSGVPSRFSGSGSGTEFTLTISSLQAEDVAVYYCQQYYTTPLTFGGGTKLEIKR			1.1 µg/mL	
antibody 10 (antibody, human IgG1, kappa, V domains shown, IgG1 complete anti-CD47 antibody) VH: QVQLQESGPGLVKPSETLSLTCTVSGGSLDNYYWSWIRQPPGKGLEWIGRIYYNGNTNYNPSLKSRVTISVDTSKNQFSLRLRSVTAADTAVYYCARGGRILAGYWGQGTLVTVSS VL: DIQMTQSPSSVSASVGDRVTISCRANQAIGTWLAWYQQKPGKAPKLLIYAASTLQSGVPSRFSGSGSGTEFTLTISSLQAEDVAVYYCQQYYTTPLTFGGGTKLEIKR			1.06 µg/mL	
antibody 16 (antibody, human IgG1, kappa, V domains shown, IgG1 complete anti-CD47 antibody) VH: QVQLQESGPGLVKPSETLSLTCTVSGGSLDNYYWSWIRQPPGKGLEWIGYIYYSGNTNYNPSLKSRVTISVDTSKNQFSLRLRSVTAADTAVYYCARGGRIFSGYWGQGTLVTVSS VL: DIQMTQSPSSVSASVGDRVTISCRANQAIGTWLAWYQQKPGKAPKLLIYAASTLQSGVPSRFSGSGSGTEFTLTISSLQAEDVAVYYCQQYYTTPLTFGGGTKLEIKR			0.975 µg/mL	
antibody 17 (antibody, human IgG1, kappa, V domains shown, IgG1 complete anti-CD47 antibody) VH: QVQLQESGPGLVKPSETLSLTCTVSGGSLDNYYWSWIRQPPGKGLEWIGYIYYSGNTNYNPSLKSRVTISVDTSKNQFSLRLRSVTAADTAVYYCARGGRFLERYWGQGTLVTVSS VL: DIQMTQSPSSVSASVGDRVTISCRANQAIGTWLAWYQQKPGKAPKLLIYAASTLQSGVPSRFSGSGSGTEFTLTISSLQAEDVAVYYCQQYYTTPLTFGGGTKLEIKR			0.795 µg/mL	
antibody 24 (antibody, human IgG1, kappa, V domains shown, IgG1 complete anti-CD47 antibody) VH: QVQLQESGPGLVKPSETLSLTCTVSGGSLDNYYWSWIRQPPGKGLEWIGRIYGDSATNYNPSLKSRVTISVDTSKNQFSLRLRSVTAADTAVYYCARGGRIFSGYWGQGTLVTVSS VL: DIQMTQSPSSVSASVGDRVTISCRANQAIGTWLAWYQQKPGKAPKLLIYAASTLQSGVPSRFSGSGSGTEFTLTISSLQAEDVAVYYCQQYYTTPLTFGGGTKLEIKR			1.41 µg/mL	
antibody 18 (antibody, human IgG1, kappa, V domains shown, IgG1 complete anti-CD47 antibody) VH: QVQLQESGPGLVKPSETLSLTCTVSGGSLDNYYWSWIRQPPGKGLEWIGYIYYSGNTNYNPSLKSRVTISVDTSKNQFSLRLRSVTAADTAVYYCARGRGIFGYWGQGTLVTVSS VL: DIQMTQSPSSVSASVGDRVTISCRANQAIGTWLAWYQQKPGKAPKLLIYAASTLQSGVPSRFSGSGSGTEFTLTISSLQAEDVAVYYCQQYYTTPLTFGGGTKLEIKR			1.23 µg/mL	
antibody 25 (antibody, human IgG1, kappa, V domains shown, IgG1 complete anti-CD47 antibody) VH: QVQLQESGPGLVKPSETLSLTCTVSGGSLDNYYWSWIRQPPGKGLEWIGYIYYSGNTNYNPSLKSRVTISVDTSKNQFSLRLRSVTAADTAVYYCARGGRIFGHWGQGTLVTVSS VL: DIQMTQSPSSVSASVGDRVTISCRANQAIGTWLAWYQQKPGKAPKLLIYAASTLQSGVPSRFSGSGSGTEFTLTISSLQAEDVAVYYCQQYYTTPLTFGGGTKLEIKR			1.31 µg/mL	
